The record followed here is publication PMC8703291, “Non-Cationic RGD-Containing Protein Nanocarrier for Tumor-Targeted siRNA Delivery” (Pharmaceutics, 2021).

The data set concerns the molecule itself. Nature of the data set: non-reducing SDS-PAGE; purified dual-RGD under non-reducing conditions, Coomassie blue staining.

B1: dual-RGD-dsRBD-18his (dual-RGD) recombinant protein (designed binder)
chain: CDCRGDCFCAGDLSAGFFMEELNTYRQKQGVVLKYQELPNSGPPHDRRFTFQVIIDGREFPEGEGRSKKEAKNAAAKLAVEILNKEKKAVSPLLLTTTNSSEGLSMGNYIGLINRIAQKKRLTVNYEQCASGVHGPEGFHYKCKMGQKEYSIGTGSTKQEAKQLAAKLAYLQILSEETSVGRGDS
notes: cyclic RGD peptide RGD-4C appended to the N-terminal of dsRBD-18His; linear GRGDS (Gly-Arg-Gly-Asp-Ser) peptide added to the C-terminal of dsRBD-18His; MW ~26 kDa (monomer); also called dual-RGD carrier; source: E. coli BL21 (DE3), purified (nickel resin), dialysed against PBS with 10% glycerol and 0.1% β-ME
For B1, the “stoichiometry N” value was determined as 2.

For orientation: stoichiometry N means the number of molecules, sites or subunits per partner or assembly.
